Values of other authors as cited in article PMC5342242.
Where two headings read alike, the source gives them in different places.

Experiments:
[1] = target: DNA polymerase III α subunit (Escherichia coli) (UniProt P10443); test: tryptophan fluorescence
[2] = target: DNA polymerase III α subunit 1-280 (Escherichia coli) (UniProt P10443); test: tryptophan fluorescence
[3] = target: DNA polymerase III α subunit 917-1160 (Escherichia coli) (UniProt P10443); test: tryptophan fluorescence
[4] = target: DNA pol III alpha 917-1160 (Escherichia coli) (UniProt P10443)
[5] = target: DNA pol III alpha 1-280 (Escherichia coli) (UniProt P10443)
[6] = target: DNA pol III alpha (Escherichia coli) (UniProt P10443)
[7] = target: DNA pol III alpha 917-1160 (Escherichia coli) (UniProt P10443); remark: listed apart in the source

Sequence of DNA polymerase III α subunit 917-1160 (Escherichia coli) (P10443 917-1160): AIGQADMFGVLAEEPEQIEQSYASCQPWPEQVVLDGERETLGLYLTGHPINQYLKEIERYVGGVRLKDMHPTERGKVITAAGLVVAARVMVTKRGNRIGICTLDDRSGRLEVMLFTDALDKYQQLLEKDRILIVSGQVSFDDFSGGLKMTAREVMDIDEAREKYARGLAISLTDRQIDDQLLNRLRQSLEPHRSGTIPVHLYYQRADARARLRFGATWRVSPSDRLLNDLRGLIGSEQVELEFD
Sequence of UmuD' (P0AG11 25-139): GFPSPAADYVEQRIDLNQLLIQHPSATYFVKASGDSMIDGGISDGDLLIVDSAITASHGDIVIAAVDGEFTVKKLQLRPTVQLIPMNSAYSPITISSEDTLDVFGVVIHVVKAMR
Sequence of UmuD (P0AG11 25-139): as above
Sequence of DNA polymerase III α subunit (Escherichia coli) (P10443 whole entry): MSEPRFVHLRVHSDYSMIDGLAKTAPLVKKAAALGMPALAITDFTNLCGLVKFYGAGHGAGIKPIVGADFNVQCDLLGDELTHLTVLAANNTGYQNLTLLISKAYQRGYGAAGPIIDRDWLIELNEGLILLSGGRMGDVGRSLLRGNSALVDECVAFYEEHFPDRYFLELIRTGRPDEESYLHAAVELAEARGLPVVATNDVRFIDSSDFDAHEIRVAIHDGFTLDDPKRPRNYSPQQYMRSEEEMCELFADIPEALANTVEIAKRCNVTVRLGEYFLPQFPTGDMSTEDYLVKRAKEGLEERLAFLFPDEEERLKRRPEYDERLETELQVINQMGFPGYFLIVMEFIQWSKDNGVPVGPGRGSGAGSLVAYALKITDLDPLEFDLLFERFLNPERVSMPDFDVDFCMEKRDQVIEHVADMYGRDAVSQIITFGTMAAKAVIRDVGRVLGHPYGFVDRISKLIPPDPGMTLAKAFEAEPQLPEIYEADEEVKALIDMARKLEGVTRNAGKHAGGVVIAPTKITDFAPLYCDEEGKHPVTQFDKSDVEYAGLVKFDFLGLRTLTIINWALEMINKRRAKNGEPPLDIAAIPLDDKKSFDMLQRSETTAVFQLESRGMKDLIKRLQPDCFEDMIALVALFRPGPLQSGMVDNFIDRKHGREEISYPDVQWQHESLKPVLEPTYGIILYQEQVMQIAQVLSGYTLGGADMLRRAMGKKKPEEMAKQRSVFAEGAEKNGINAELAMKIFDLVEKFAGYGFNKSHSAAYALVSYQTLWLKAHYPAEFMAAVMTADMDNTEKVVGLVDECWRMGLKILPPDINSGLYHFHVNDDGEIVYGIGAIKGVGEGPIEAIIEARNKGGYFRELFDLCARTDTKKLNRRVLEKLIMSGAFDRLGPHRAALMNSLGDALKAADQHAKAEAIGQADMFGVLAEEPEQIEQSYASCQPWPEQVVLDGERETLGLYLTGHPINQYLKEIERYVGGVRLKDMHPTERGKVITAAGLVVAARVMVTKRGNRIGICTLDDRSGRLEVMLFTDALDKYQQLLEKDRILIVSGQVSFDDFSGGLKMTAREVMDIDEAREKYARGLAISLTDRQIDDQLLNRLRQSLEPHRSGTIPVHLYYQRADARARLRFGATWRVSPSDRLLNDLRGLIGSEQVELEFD
Sequence of DNA polymerase III α subunit 1-280 (Escherichia coli) (P10443 1-280): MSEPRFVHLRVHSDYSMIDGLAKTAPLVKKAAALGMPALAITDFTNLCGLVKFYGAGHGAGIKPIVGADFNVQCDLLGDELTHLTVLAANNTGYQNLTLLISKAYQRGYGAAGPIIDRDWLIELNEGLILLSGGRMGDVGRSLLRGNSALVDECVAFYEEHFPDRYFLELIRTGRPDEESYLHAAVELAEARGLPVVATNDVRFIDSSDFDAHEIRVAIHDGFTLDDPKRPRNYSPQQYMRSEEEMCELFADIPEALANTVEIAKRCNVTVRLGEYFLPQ
Sequence of DNA pol III alpha 917-1160 (Escherichia coli) (P10443 917-1160): as the sequence (P10443 917-1160) above
Sequence of DNA pol III alpha (Escherichia coli) (P10443 whole entry): as the sequence (P10443 whole entry) above
Sequence of DNA pol III alpha 1-280 (Escherichia coli) (P10443 1-280): as the sequence (P10443 1-280) above

Substance	Kd [1] [µM]	Kd [2] [µM]	Kd [3] [µM]	Kd [4] [µM]	Kd [5] [µM]	Kd [6] [µM]	Kd [7] [µM]
UmuD 3A (from UniProt P0AG11)	8.7	9.3	3.4	–	–	–	–
UmuD (from UniProt P0AG11)	1.1	7.3	13.9	0.7	–	–	–
UmuD S60A (from UniProt P0AG11)	10.6	10.3	0.7	–	–	–	–
UmuD' (from UniProt P0AG11)	–	–	–	–	8.6	10.9	3.8
